Laboratory results from paper doi:10.1101/2025.07.04.663224.

Tests used:
[1] = target: SmGdpP74 (cytosolic region of Streptococcus mutans GdpP, residues 74-654) (Streptococcus mutans strain NCTC10449); test: cryo-EM structure
[2] = target: SmGdpP74 (cytosolic region of Streptococcus mutans GdpP, residues 74-654) (Streptococcus mutans strain NCTC10449); test: AUC
[3] = target: SmGdpP74 (cytosolic region of Streptococcus mutans GdpP, residues 74-654) (Streptococcus mutans strain NCTC10449); test: cryo-EM structure; remark: listed apart in the source
[4] = target: SmGdpP74 (cytosolic region of Streptococcus mutans GdpP, residues 74-654) (Streptococcus mutans strain NCTC10449); test: cryo-EM structure; remark: listed apart in the source
[5] = target: SmGdpP74 (cytosolic region of Streptococcus mutans GdpP, residues 74-654) (Streptococcus mutans strain NCTC10449); test: SEC

Measured: stoichiometry N

SmGdpP74 (cytosolic region of Streptococcus mutans GdpP, residues 74-654) (domain or fragment)
4: all assays above
